Measured values taken from patent US20260091143A1, “NEAR-INFRARED IMAGING AGENT AND USES THEREOF” (CASE WESTERN RESERVE UNIVERSITY, priority 2022, published 2026).
Where a SMILES comes first, the peptide text is derived from it. Where no end group is shown, it is not given here. The star is where a group is joined. X1 = CC1(C)C(/C=C/C=C/C=C/C=C2/N(CCCCCC(=O)*)c3ccc4ccccc4c3C2(C)C)=[N+](CCCCS(=O)(=O)[O-])c2ccc3ccccc3c21; Tide Fluor 8WS = fluorophore acid, coupled by amide to the N-terminal amine

What was measured:
[1] = Ex vivo fluorescence in excised kidneys, spleen and liver; set-up: species or system mice; conditions: 24 h; for p-value, average radiant efficiency of excised kidney vs SBK2-CLE-ICG / p-value, average radiant efficiency of excised kidney vs SBK2-ICG / p-value, average radiant efficiency of excised kidney vs Scram-ICG / p-value, average radiant efficiency of excised liver vs SBK2-CLE-ICG / p-value, average radiant efficiency of excised liver vs SBK2-ICG / p-value, average radiant efficiency of excised liver vs Scram-ICG / p-value, average radiant efficiency of excised spleen vs SBK2-CLE-ICG / p-value, average radiant efficiency of excised spleen vs SBK2-ICG / p-value, average radiant efficiency of excised spleen vs Scram-ICG / p-value, average radiant efficiency of excised kidney vs Scram-CLE-ICG / p-value, average radiant efficiency of excised liver vs Scram-CLE-ICG / p-value, average radiant efficiency of excised spleen vs Scram-CLE-ICG: ICG-labeled agents 300 nmol/kg, ICG 400 nmol/kg, Welch's t-test
Excerpt: (§1) The IVIS Spectrum In vivo Imaging System and Living Image analysis software, (Perkin Elmer, Hopkinton, MA, USA) were used for acquisition and analysis of mouse images. Prior to the experiment, mice were weighed, and baseline images acquired using the appropriate filter sets and the autoexposure setting. Three filter sets for excitation/emission were used: 745 nm/800 nm, 745 nm/820 nm, 745 nm/840 nm. The filter set showing highest fluorescence intensity for a fluorophore was used throughout for that dye. For ICG, 745 nm/820 nm was used and for IRDye® 800CW and Tide Fluor™ 8WS, 745 nm/800 nm was used. Agent stocks were diluted in saline or PBS to ˜100 μM and the volume needed for the desired dose of 300 nmol/kg or 400 nmol/kg calculated. Doses were loaded into polyurethane tubing and connected to a 1 mL syringe as previously described. Mice were anesthetized in an induction chamber with 2% isoflurane-oxygen and moved onto a 37° C. heated platform with a nose cone. 26-gauge veterinary catheters were placed in each tail and the preloaded tubing was connected. Agents were injected over 30 sec, catheters were removed, and animals placed in the prepared Spectrum imaging chamber. Images were acquired beginning 10 min after injecting the agents. For SBK2-CCLE-IR800 and Scram-CCLE-IR800, images were acquired every 10 min for 60 min. For the ICG-labeled and TF8WS-labeled peptides, images were acquired at 10 min, 30 min, 1 h, 2 h, 4 h, 8 h, and 24 h. At the end of the imaging time, the animals were euthanized by CO2 asphyxiation, and the tumor and other organs excised and imaged on the Spectrum.
(§2) Living Image analysis software was used for region of interest (ROI) analysis of the optical data. Images acquired for each time point consist of a fluorescent image superimposed on a photographic image. Binning was set to 1 and in vivo tumor ROIs were manually drawn based on contours visible in the black and white photograph for each timepoint. After outlining the tumor ROIs, fluorescence was measured with the built-in Spectrum function. For excised tumors, kidneys, spleen and liver, ROIs were drawn around the perimeter of the tumor or organ.
(§3) LivingImage software measures fluorescence intensity in units of radiant efficiency. For these analyses, average radiant efficiency measurements in (photons/s/cm^2/steradian)/(μW/cm^2) were used for further comparisons to account for differences in tumor and organ size. GraphPad Prism 9 was used for plots and statistical analyses. Where indicated, means for pairs of agents were compared using a two-tailed t-test with Welch's correction and statistical significance was assumed at p<0.05. Welch's correction was used to eliminate assumptions about variance between the groups being compared.

[2] = tested on: LN-229 glioma flank tumor; assay: In vivo fluorescent imaging of tumor signal in LN-229 flank tumor-bearing nude mice; conditions: 400 nmol/kg
Excerpt: All applicable institutional and/or NIH guidelines for the care and use of animals were followed. The Case Western Reserve University Institutional Animal Care and Use Committee reviewed and approved the animal protocols. Outbred homozygous female nude mice (Fox1^nu/Fox1^nu) were purchased from Jackson Laboratory, Bar Harbor, ME, USA. Details of the human glioblastoma LN-229 cell line have been described previously. LN-229 cells express the PTPμ biomarker and have been used in previous studies for evaluating PTPμ-targeted agents using different imaging modalities. Flank tumors were started in the right flank of mice at approximately 7 weeks of age by injecting a mixture of 2×10^6 cells and Matrigel® Matrix (Corning®, Corning Inc., Corning, NY, USA). Experiments were performed in mice 4 to 8 weeks after implanting the tumors.
as §1, §2, §3

[3] = Whole-body and ventral fluorescent imaging of biodistribution and clearance; format: in vivo, mice
Excerpt: as §1

Molecule | p-value, average radiant efficiency of excised kidney vs SBK2-CLE-ICG [1] | p-value, average radiant efficiency of excised kidney vs SBK2-ICG [1] | p-value, average radiant efficiency of excised kidney vs Scram-ICG [1] | p-value, average radiant efficiency of excised liver vs SBK2-CLE-ICG [1] | p-value, average radiant efficiency of excised liver vs SBK2-ICG [1] | p-value, average radiant efficiency of excised liver vs Scram-ICG [1] | p-value, average radiant efficiency of excised spleen vs SBK2-CLE-ICG [1] | p-value, average radiant efficiency of excised spleen vs SBK2-ICG [1] | p-value, average radiant efficiency of excised spleen vs Scram-ICG [1] | p-value, average radiant efficiency of excised kidney vs Scram-CLE-ICG [1] | p-value, average radiant efficiency of excised liver vs Scram-CLE-ICG [1] | p-value, average radiant efficiency of excised spleen vs Scram-CLE-ICG [1] | other results
CC(C)C[C@H](NC(=O)[C@H](CC(=O)O)NC(=O)[C@H](CC(N)=O)NC(=O)[C@H](CC(=O)O)NC(=O)[C@@H](NC(=O)CNC(=O)[C@@H](NC(=O)[C@H](CCC(=O)O)NC(=O)[C@@H]1CCCN1C(=O)[C@H](CCC(N)=O)NC(=O)[C@@H](NC(=O)[C@H](Cc1ccccc1)NC(=O)CNC(=O)[C@H](CO)NC(=O)CNC(=O)CNC(=O)[C@H](CO)NC(=O)CNC(=O)CNC(=O)CCCCCN1/C(=C/C=C/C=C/C=C/C2=[N+](CCCCS(=O)(=O)[O-])c3ccc4ccccc4c3C2(C)C)C(C)(C)c2c1ccc1ccccc21)[C@@H](C)O)[C@@H](C)O)[C@@H](C)O)C(=O)N[C@@H](Cc1c[nH]c2ccccc12)C(=O)N[C@@H](CO)C(=O)N[C@H](C(=O)N[C@@H](CC(=O)O)C(=O)N[C@@H](CC(N)=O)C(=O)N[C@@H](CCC(=O)O)C(=O)N[C@@H](CCCCN)C(=O)O)C(C)C [Scram-CLE-ICG] (X1-GGSGGSGFTQPETGTDNDLWSVDNEK-OH) | 0.034 | <0.001 | ns | ns | <0.001 | ns | 0.015 | <0.001 | ns |  |  |  | 
SBK2-TF8WS: Tide Fluor 8WS conjugated via amide to N-terminus of SBK2 peptide (SEQ ID NO: 5) ({Tide Fluor 8WS}-GEGDDFNWEQVNTLTKPTSD) |  |  |  |  |  |  |  |  |  |  |  |  | tumor signal at 24 h (not specific for PTPμ) [2]: high tumor-specific signal; difference in in vivo tumor average radiant efficiency vs Scram-TF8WS ([2]; at any time out to 24 h): No significant differences; specific tumor labeling ([2]; versus Scrambled control agents): no specific tumor labeling; difference in average radiant efficiency in kidney, spleen, or liver vs Scram-TF8WS ([1]; 400 nmol/kg): no significant differences
CC1(C)C(=CC=C2CCCC(C=CC3=[N+](CCCCCC(=O)[O-])c4ccc(S(=O)(=O)[O-])cc4C3(C)C)=C2Oc2ccc(S(=O)(=O)[O-])cc2)N(CCCCS(=O)(=O)[O-])c2ccc(S(=O)(=O)[O-])cc21.[Na+].[Na+].[Na+].[Na+] [IRDye® 800CW] |  |  |  |  |  |  |  |  |  |  |  |  | clearance compared to the peptide-containing agents ([3]; dye only, data not shown): cleared more slowly; overall body fluorescence compared to IRDye 800CW-labeled peptides at the same dose ([3]; dye only, data not shown): more overall fluorescence throughout the body
CC(C)C[C@H](NC(=O)[C@H](CC(=O)O)NC(=O)[C@H](CC(N)=O)NC(=O)[C@H](CC(=O)O)NC(=O)[C@@H](NC(=O)CNC(=O)[C@@H](NC(=O)[C@H](CCC(=O)O)NC(=O)[C@@H]1CCCN1C(=O)[C@H](CCC(N)=O)NC(=O)[C@@H](NC(=O)[C@H](Cc1ccccc1)NC(=O)CNC(=O)CCCCCN1/C(=C/C=C/C=C/C=C/C2=[N+](CCCCS(=O)(=O)[O-])c3ccc4ccccc4c3C2(C)C)C(C)(C)c2c1ccc1ccccc21)[C@@H](C)O)[C@@H](C)O)[C@@H](C)O)C(=O)N[C@@H](Cc1c[nH]c2ccccc12)C(=O)N[C@@H](CO)C(=O)N[C@H](C(=O)N[C@@H](CC(=O)O)C(=O)N[C@@H](CC(N)=O)C(=O)N[C@@H](CCC(=O)O)C(=O)N[C@@H](CCCCN)C(=O)O)C(C)C [Scram-ICG] (X1-GFTQPETGTDNDLWSVDNEK-OH) | ns | <0.001 |  | ns | <0.001 |  | ns | <0.001 |  | ns | ns | ns | clearance compared to either of the CLE-containing agents ([3]; 400 nmol/kg, 24 h): clear more slowly
CC(C)C[C@H](NC(=O)[C@@H](NC(=O)[C@H](CC(N)=O)NC(=O)[C@@H](NC(=O)[C@H](CCC(N)=O)NC(=O)[C@H](CCC(=O)O)NC(=O)[C@H](Cc1c[nH]c2ccccc12)NC(=O)[C@H](CC(N)=O)NC(=O)[C@H](Cc1ccccc1)NC(=O)[C@H](CC(=O)O)NC(=O)[C@H](CC(=O)O)NC(=O)CNC(=O)[C@H](CCC(=O)O)NC(=O)CNC(=O)CCCCCN1/C(=C/C=C/C=C/C=C/C2=[N+](CCCCS(=O)(=O)[O-])c3ccc4ccccc4c3C2(C)C)C(C)(C)c2c1ccc1ccccc21)C(C)C)[C@@H](C)O)C(=O)N[C@H](C(=O)N[C@@H](CCCCN)C(=O)N1CCC[C@H]1C(=O)N[C@H](C(=O)N[C@@H](CO)C(=O)N[C@@H](CC(=O)O)C(=O)O)[C@@H](C)O)[C@@H](C)O [SBK2-ICG] (X1-GEGDDFNWEQVNTLTKPTSD-OH) | <0.001 |  | <0.001 | <0.001 |  | <0.001 | <0.001 |  | <0.001 | <0.001 | <0.001 | <0.001 | 
Scram-TF8WS: Tide Fluor 8WS conjugated to N-terminus of Scrambled control peptide (SEQ ID NO: 48) ({Tide Fluor 8WS}-GFTQPETGTDNDLWSVDNEK) |  |  |  |  |  |  |  |  |  |  |  |  | tumor signal at 24 h (not specific for PTPμ) [2]: high tumor-specific signal
CC(C)C[C@H](NC(=O)[C@@H](NC(=O)[C@H](CC(N)=O)NC(=O)[C@@H](NC(=O)[C@H](CCC(N)=O)NC(=O)[C@H](CCC(=O)O)NC(=O)[C@H](Cc1c[nH]c2ccccc12)NC(=O)[C@H](CC(N)=O)NC(=O)[C@H](Cc1ccccc1)NC(=O)[C@H](CC(=O)O)NC(=O)[C@H](CC(=O)O)NC(=O)CNC(=O)[C@H](CCC(=O)O)NC(=O)CNC(=O)[C@H](CO)NC(=O)CNC(=O)CNC(=O)[C@H](CO)NC(=O)CNC(=O)CNC(=O)CCCCCN1/C(=C/C=C/C=C/C=C/C2=[N+](CCCCS(=O)(=O)[O-])c3ccc4ccccc4c3C2(C)C)C(C)(C)c2c1ccc1ccccc21)C(C)C)[C@@H](C)O)C(=O)N[C@H](C(=O)N[C@@H](CCCCN)C(=O)N1CCC[C@H]1C(=O)N[C@H](C(=O)N[C@@H](CO)C(=O)N[C@@H](CC(=O)O)C(=O)O)[C@@H](C)O)[C@@H](C)O [SBK2-CLE-ICG] (X1-GGSGGSGEGDDFNWEQVNTLTKPTSD-OH) |  | <0.001 | ns |  | <0.001 | ns |  | <0.001 | ns | 0.034 | ns | 0.015 | clearance compared to SBK2-ICG ([3]; mouse, in vivo): cleared more rapidly
